In the supplement of paper PMC10126150:
± gives the standard deviation of the averaged measurements.

System: ATP
Assay: switch fluorescence ratio, 500 uM ATP over buffer (Cy3 cluster intensity, sum of 5 cycles each) (fold (ratio)); higher = stronger signal-on switching upon ATP binding; sequences stand for … in TCGTCGGCAGCGTCAGATGTGTATAAGAGACAGTTTTTTTTTTTTTTTTTTTTTTTTT…TC
Details: aptamer strand: ATP DNA aptamer (quencher-CACCTGGGGGAGTATTGCGGAGGAAGG + anchor), 100 nM annealed; ATP concentration: 500 uM
Outline: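 Between each of five buffer/ATP cycles, the flow-cell was stripped with NaOH and re-annealed. Each cycle imaged Cy3-labelled switching-strand clusters, annealed to 100 nM quencher-labelled ATP aptamer on a modified Illumina MiSeq flow-cell, first in selection buffer and then after 15 min with 500 uM ATP at 22 °C. The fluorescence ratio is summed target-cycle over summed buffer-cycle Cy3 intensity per cluster, averaged per switch-domain sequence, with clusters outside 100-1000 RFU excluded.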
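Further: ATP exposure 15 min at 22 °C before imaging.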

Sequence	switch fluorescence ratio
TTGTATGATT	1.013 ± 0.0075
TTGTATGGAC	1.019 ± 0.0076
TTGTATGGCA	0.973 ± 0.027
TTGTATGTTA	1 ± 0.017
TTGTCAATGT	1.06 ± 0.053
TTGTCACAGC	1.03 ± 0.022
TTGTCAGGGT	0.995 ± 0.026
TTGTCATGAT	1.006 ± 0.006
TTGTCGCGTA	1.01 ± 0.07
TTGTCGGTTT	0.983 ± 0.014
TTGTCGTCAC	1.01 ± 0.037
TTGTCTAATT	1.007 ± 0.0081
TTGTCTAGGG	0.98 ± 0.033
TTGTCTAGGT	1.01 ± 0.013
TTGTGACAGT	1.01 ± 0.024
TTGTGACGGG	1 ± 0.023
TTGTGATAGC	1.05 ± 0.075
TTGTGATTGC	1.03 ± 0.089
TTGTGCGAAA	1.01 ± 0.059
TTGTGCGCGG	1.04 ± 0.019
TTGTGCGGAC	1.01 ± 0.04
TTGTGCGTGG	0.971 ± 0.015
TTGTGCTGGA	1.04 ± 0.029
TTGTGGAAAA	0.953 ± 0.03
TTGTGGAAAC	1.02 ± 0.012
TTGTGGACTT	0.9995 ± 0.0093

Sequence	switch fluorescence ratio
TTGTGGATAA	1.01 ± 0.0094
TTGTGGCTTA	0.98 ± 0.036
TTGTGGGGCT	0.9974 ± 0.009
TTGTGGGGG	1.0016 ± 0.0009
TTGTGGGGGC	0.991 ± 0.038
TTGTGGGGTA	1 ± 0.023
TTGTGGGTAC	1.0042 ± 0.0004
TTGTGGTGAC	0.9866 ± 0.0012
TTGTGGTTCC	1.08 ± 0.14
TTGTGTTATC	1.01 ± 0.012
TTGTGTTGTA	1 ± 0.042
TTGTTAATAG	1.06 ± 0.062
TTGTTACGGA	1.01 ± 0.017
TTGTTACGGT	0.981 ± 0.041
TTGTTAGATT	0.994 ± 0.031
TTGTTATAGC	0.987 ± 0.042
TTGTTATGTG	0.955 ± 0.024
TTGTTCAAGG	0.981 ± 0.015
TTGTTCAGTT	1.02 ± 0.036
TTGTTCATTT	0.994 ± 0.012
TTGTTCTTAA	1.05 ± 0.11
TTGTTGGGCT	0.981 ± 0.039
TTGTTGGGGC	1.02 ± 0.035
TTGTTGGGTT	1.02 ± 0.061
TTGTTGTACT	1.02 ± 0.014
TTGTTGTAGG	0.993 ± 0.041

Sequence	switch fluorescence ratio
TTGTTGTGTT	1.005 ± 0.0098
TTGTTGTTCC	1.08 ± 0.063
TTGTTTAAGA	1.03 ± 0.082
TTGTTTACTT	1.04 ± 0.061
TTGTTTATAG	0.985 ± 0.03
TTGTTTATGT	0.9993 ± 0.0082
TTGTTTCAGT	0.997 ± 0.028
TTGTTTTAGT	1.06 ± 0.067
TTGTTTTATA	0.9733 ± 0.0064
TTGTTTTCAT	1.04 ± 0.018
TTGTTTTCGG	0.961 ± 0.02
TTGTTTTGGG	1 ± 0.019
TTGTTTTGGT	0.966 ± 0.016
TTGTTTTTGC	0.9959 ± 0.0089
TTTAAAAGGA	1.01 ± 0.056
TTTAAACCCT	1.03 ± 0.024
TTTAAAGAAA	1.02 ± 0.016
TTTAAAGCAG	1.01 ± 0.02
TTTAAAGGCC	0.9682 ± 0.00099
TTTAAAGGGA	1.06 ± 0.17
TTTAAAGTTG	1.05 ± 0.04
TTTAAAGTTT	0.99 ± 0.029
TTTAAATGTT	0.991 ± 0.031
TTTAAATTGA	0.986 ± 0.02
TTTAAATTGT	0.99 ± 0.035
TTTAAGACGG	0.98439 ± 0.00032

Sequence	switch fluorescence ratio
TTTAAGAGGG	0.978 ± 0.038
TTTAAGCTAC	4.03 ± 0.57
TTTAAGGGAT	1 ± 0.041
TTTAAGTCTC	1.001 ± 0.0062
TTTAAGTGCG	1.05 ± 0.09
TTTAATAAGG	0.9962 ± 0.0027
TTTAATACTG	1.08 ± 0.089
TTTAATATAG	1 ± 0.044
TTTAATATAT	1.02 ± 0.031
TTTAATCGTT	0.999 ± 0.014
TTTAATGATT	1.05 ± 0.021
TTTAATGTTT	1 ± 0.017
TTTAATTCAT	1.008 ± 0.0088
TTTAATTGTG	0.9891 ± 0.0082
TTTACAAATT	1 ± 0.02
TTTACAAGT	0.982 ± 0.035
TTTACAATGG	1.058 ± 0.0062
TTTACAGGTA	0.981 ± 0.021
TTTACCGGAG	1.15 ± 0.089
TTTACCGGGA	1.13 ± 0.15
TTTACGAAAG	1.04 ± 0.044
TTTACGGAAC	1.244 ± 0.0059
TTTACGGTAA	1.15 ± 0.019
TTTACGGTTG	0.996 ± 0.016
TTTACGTCGG	1.02 ± 0.034
TTTACGTGTT	0.991 ± 0.012

Sequence	switch fluorescence ratio
TTTACTAGCA	1.04 ± 0.11
TTTACTGCCT	1.06 ± 0.022
TTTACTGGTG	1.13 ± 0.012
TTTACTTAGG	1.04 ± 0.023
TTTACTTTGG	0.982 ± 0.034
TTTACTTTTC	1.49 ± 0.75
TTTAGACAAT	1.02 ± 0.022
TTTAGACGGG	0.965 ± 0.028
TTTAGACGGT	1.02 ± 0.066
TTTAGACGTG	0.976 ± 0.012
TTTAGAGTCC	1.05 ± 0.098
TTTAGAGTGC	1 ± 0.093
TTTAGATATA	1.031 ± 0.0011
TTTAGATCTT	0.981 ± 0.012
TTTAGATTGT	1.01 ± 0.029
TTTAGCAGGG	1.01 ± 0.026
TTTAGCATGG	1.01 ± 0.047
TTTAGCGCAT	1.04 ± 0.06
TTTAGCGTTT	0.997 ± 0.051
TTTAGCTAGG	1.01 ± 0.033
TTTAGCTAGT	1.01 ± 0.032
TTTAGGAGGA	0.997 ± 0.025
TTTAGGATTT	0.985 ± 0.027
TTTAGGCTGG	0.979 ± 0.022
TTTAGGCTTT	1 ± 0.012
TTTAGGGCGG	0.994 ± 0.017

Sequence	switch fluorescence ratio
TTTAGGGGAG	0.994 ± 0.022
TTTAGGGTCA	0.962 ± 0.062
TTTAGGTCAT	1.01 ± 0.083
TTTAGGTTTT	1.01 ± 0.021
TTTAGTACCT	1.2 ± 0.044
TTTAGTGGGC	0.9843 ± 0.0081
TTTAGTGGGG	0.97 ± 0.01
TTTAGTTGTT	1.01 ± 0.03
TTTAGTTTTT	0.996 ± 0.042
TTTATAAAAA	0.998 ± 0.026
TTTATAAAAT	0.987 ± 0.039
TTTATAAGGT	0.988 ± 0.012
TTTATAATTA	0.982 ± 0.013
TTTATAGAAA	1.05 ± 0.02
TTTATAGCGA	1.63 ± 0.54
TTTATAGCGG	0.996 ± 0.015
TTTATAGTAA	0.98978 ± 0.00052
TTTATAGTCT	0.99 ± 0.021
TTTATAGTGT	0.9894 ± 0.0097
TTTATAGTTT	1.01 ± 0.026
TTTATATGAA	0.97 ± 0.042
TTTATATGCG	1 ± 0.027
TTTATATTTT	1.02 ± 0.034
